Assay results taken from US20250051442A1 (UNIVERSITY OF TSUKUBA, published 2025).

T1: human DNAM-1 (human, UniProt Q15762 19-336)
T1 construct: whole, on cells; also called hDNAM-1; CD226
T1 sequence (looked up): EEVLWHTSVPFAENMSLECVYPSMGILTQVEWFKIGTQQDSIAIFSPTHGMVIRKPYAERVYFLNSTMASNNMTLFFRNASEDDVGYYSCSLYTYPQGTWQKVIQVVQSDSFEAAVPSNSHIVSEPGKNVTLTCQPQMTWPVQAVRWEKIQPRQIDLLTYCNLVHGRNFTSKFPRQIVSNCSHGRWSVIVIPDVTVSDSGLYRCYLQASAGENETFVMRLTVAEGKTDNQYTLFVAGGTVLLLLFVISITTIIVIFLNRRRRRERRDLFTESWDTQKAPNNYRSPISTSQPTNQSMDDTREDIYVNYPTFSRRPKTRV

B1: humanized anti-DNAM-1 antibody hAKB1-B (antibody, human IgG1, kappa, L234A L235A, V domains shown)
VH: QVQLQESGPGLVKPSETLSLTCTVSGYSISSGYYWNWIRQPPGKGLEWMGYISYDGSNNYNPSLKNRVTISRDTSKNQFSLKLSSVTAADTAVYYCARAYYGNYVGYFDVWGQGTTVTVSS
VL: DIQMTQSPSSLSASVGDRVTITCKASQSVSNDVAWYQQKPGKAPKLLIYYASNRYTGVPSRFSGSGYGTDFTFTISSLQPEDIATYYCQQDYSSPLTFGGGTKVEIKR
notes: Full chains without signal peptide; also called phAKB1-B (expression vector); hAKB1-VH2 + hAKB1-VL1
B2: humanized anti-DNAM-1 antibody hAKB1-A (antibody, human IgG1, kappa, L234A L235A, V domains shown)
VH: QVQLQESGPGLVKPSETLSLTCTVSGYSITSGYYWNWIRQPPGKGLEWMGYISYDGSNNYNPSLKNRVTISRDTSKNQFSLKLSSVTAADTAVYYCARAYYGNYVGYFDVWGQGTTVTVSS
VL: DIQMTQSPSSLSASVGDRVTITCKASQSVSNDVAWYQQKPGKAPKLLIYYASNRYTGVPSRFSGSGYGTDFTFTISSLQPEDIATYYCQQDYSSPLTFGGGTKVEIKR
notes: Full chains without signal peptide; also called phAKB1-A (expression vector); hAKB1-VH1 + hAKB1-VL1
B3: anti-human DNAM-1 monoclonal antibody mAKB1 (antibody, V domains shown)
VH: DVQLQESGPGLVKPSQSLSLTCSVTGYSITSGYYWNWIRQFPGNKLEWMGYISYDGSNNYNPSLKNRISITRDTSKNQFFLKLNSVTTEDTATYYCARAYYGNYVGYFDVWGAGTTVTVSS
VL: SIVMTQTPKFLLVSAGDRVTITCKASQSVSNDVAWYQQKPGQSPKLLIYYASNRYTGVPDRFTGSGYGTDFTFTISTVQAEDLAVYFCQQDYSSPLTFGAGTKLELKR
notes: also called clone mAKB1

Legend:
human DNAM-1 [1] = biological target: T1, human DNAM-1; assay: flow cytometry on hDNAM-1/BW cells, antibody purified from CHO-K1
Experimental: Binding to human DNAM-1 was examined by flow cytometry using a mouse lymphoblast BW5147 cell line (hereinafter, may be referred to as “BW”) and BW5147 stably expressing human hDNAM-1 (hereinafter, may be referred to as “hDNAM-1/BW”). Test antibodies at various concentrations were incubated with about […] hDNAM-1/BW cells at 4° C. for 1 hour in PBS (FACS buffer) containing 0.5% BSA and 0.05% NaN3. Thereafter, the cells were washed with ice-cooled FACS Buffer, and incubated at 4° C. for 30 minutes using a PE-labeled goat anti-human IgG antibody (manufactured by SouthernBiotech). After washing with FACS buffer, the stained cells were analyzed using a FACScan flow cytometer (manufactured by BD Biosciences).

human DNAM-1 [2] = biological target: T1, human DNAM-1; assay: flow cytometry on BW5147 cells stably expressing human DNAM-1 (hDNAM-1/BW)

Row | Binder | EC50 (human DNAM-1 [1]) [µg/mL] | EC50 (human DNAM-1 [2]) [µg/mL]
1 | B1 | 5 | –
2 | B2 | 5 | –
3 | B3 | – | 6
